In test [1] the target is T1, foldon-stabilized collagen model peptide with the guest GPRGFP. The test can be described thus: AUC; sedimentation velocity with fluorescence detection; ATTO488-labelled foldon CMP at 1 μM with HSP47 at ratios (CMP:HSP47) 1:1 to 1:20; 20 mM HEPES, 150 mM NaCl pH 7.5; 42,000 rpm.
The target of test [2] is T2, foldon-stabilized collagen model peptide with the guest GPRGPP. The description is as above.
Test [3] addresses T1, foldon-stabilized collagen model …. The test can be described thus: ELISA; collagen model peptides or collagen I coated on Nunc MaxiSorp (500 ng/well), blocked with 1% BSA in TBS; soluble HSP47 in a 1:4 dilution series from 8 or 10 μM; detected by anti-His-HRP; triplicates, four-parameter logistic fit. For orientation: ELISA stands for enzyme-linked immunosorbent assay.
The target of test [4] is T2, foldon-stabilized collagen model …. The test is described as above.

“And” between values parts separate entries of the source, which are not always exact repeats. Identical values can stand only once.

B1: HSP47 (heat shock protein 47), Canis lupus, residues 36-418 with C-terminal hexahistidine tag, C7C419 36-418 (natural protein)
chain: LSPKAATLAERSAGLAFSLYQAMAKDQAVENILLSPVVVASSLGLVSLGGKATTASQAKAVLSAEQLRDEEVHAGLGELLRSLSNSTARNVTWKLGSRLYGPSSVSFAEDFVRSSKQHYNCEHSKINFRDKRSALQSINEWAAQTTDGKLPEVTKDVERTDGALLVNAMFFKPHWDEKFHHKMVDNRGFMVTRSYTVGVTMMHRTGLYNYYDDEKEKLQIVEMPLAHKLSSLIILMPHHVEPLERLEKLLTKEQLKIWMGKMQKKAVAISLPKGVVEVTHDLQKHLAGLGLTEAIDKNKADLSRMSGKKDLYLASVFHATAFEWDTEGNPFDQDIYGREELRSPKLFYADHPFIFLVRDTQSGSLLFIGRLVRPKGDKMRDEL
The term Kd denotes the constant that tells how readily two partners part at equilibrium. Read a low Kd as a tighter complex. As to B1, the stoichiometry N (HSP47 per CMP trimer) worked out at 1 in test [1] and 2 in test [2]. The dissociation constant Kd in test [3] was 12 nM; in test [4], 36 nM and 21.7 nM.

The values are drawn from PMC8626583, “Collagen’s primary structure determines collagen:HSP47 complex stoichiometry” (The Journal of Biological Chemistry, 2021).
